According to US20070292895:

Tests used:
[1] = target: T1, coumarin-labeled 10-mer peptide substrate REVNFEVEFR
T1 chain: REVNFEVEFR

[2] = target: statine-Val (a peptide BACE-1 inhibitor)

B1: mouse brain BACE-1 (MES membrane preparation from wild-type mice) (protein)
chain: ETDEESEEPGRRGSFVEMVDNLRGKSGQGYYVEMTVGSPPQTLNILVDTGSSNFAVGAAPHPFLHRYYQRQLSSTYRDLRKGVYVPYTQGKWEGELGTDLVSIPHGPNVTVRANIAAITESDKFFINGSNWEGILGLAYAEIARPDDSLEPFFDSLVKQTHIPNIFSLQLCGAGFPLNQTEALASVGGSMIIGGIDHSLYTGSLWYTPIRREWYYEVIIVRVEINGQDLKMDCKEYNYDKSIVDSGTTNLRLPKKVFEAAVKSIKAASSTEKFPDGFWLGEQLVCWQAGTTPWNIFPVISLYLMGEVTNQSFRITILPQQYLRPVEDVATSQDDCYKFAVSQSSTGTVMGAVIMEGFYVVFDRARKRIGFAVSACHVHDEFRTAAVEGPFVTADMEDCGYNIPQTDESTLMTIAYVMAAICALFMLPLCLMVCQWRCLRCLRHQHDDFADDISLLK
hydrolysis of substrate (HPLC) [1]: hydrolysis was observed to be about 15% of total substrate that had been added in the reaction | substrate cleavage (HPLC product peak), brain extract [2]: BACE-1 inhibitor's Stat(V) and Merck-3 led to complete abolition of substrate cleavage
